The assay deals with T1, Fas (mouse (endogenous in WEHI-231)) (UniProt P25446).
T1 sequence: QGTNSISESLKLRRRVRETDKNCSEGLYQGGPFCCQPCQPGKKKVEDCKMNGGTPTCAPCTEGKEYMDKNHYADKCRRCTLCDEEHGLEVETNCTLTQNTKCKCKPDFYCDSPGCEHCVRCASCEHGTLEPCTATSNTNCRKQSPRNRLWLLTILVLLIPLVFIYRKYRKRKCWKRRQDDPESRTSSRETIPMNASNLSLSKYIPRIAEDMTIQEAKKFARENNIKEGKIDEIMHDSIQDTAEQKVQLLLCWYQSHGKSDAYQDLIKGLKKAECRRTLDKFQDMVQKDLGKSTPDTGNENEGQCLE

Turning to “FasL (from UniProt P41047 1-279) (ligand)”, the survival of p21–35-loaded WEHI-231 cells co-cultured with the cytolytic CD4+ T cell clone R3TB7, restored by increasing concentrations of an anti-FasL antibody (Annexin V / 7-AAD) (% of WEHI-231 cell survival) amounted to 80.

Values taken from publication PMC3467281.
